Reference: patent US20070197442A1, “Methods for the Treatment of Macular Degeneration and Related Eye Conditions” (priority 2006, published 2007)

Tests used:
LCAT = molecular target: T1, LCAT (Homo sapiens, UniProt P04180); assay: in vitro LCAT activation; format: biochemical; settings: in the presence of lipids; % of the activity of native apoA-I
T1 sequence (P04180 25-440): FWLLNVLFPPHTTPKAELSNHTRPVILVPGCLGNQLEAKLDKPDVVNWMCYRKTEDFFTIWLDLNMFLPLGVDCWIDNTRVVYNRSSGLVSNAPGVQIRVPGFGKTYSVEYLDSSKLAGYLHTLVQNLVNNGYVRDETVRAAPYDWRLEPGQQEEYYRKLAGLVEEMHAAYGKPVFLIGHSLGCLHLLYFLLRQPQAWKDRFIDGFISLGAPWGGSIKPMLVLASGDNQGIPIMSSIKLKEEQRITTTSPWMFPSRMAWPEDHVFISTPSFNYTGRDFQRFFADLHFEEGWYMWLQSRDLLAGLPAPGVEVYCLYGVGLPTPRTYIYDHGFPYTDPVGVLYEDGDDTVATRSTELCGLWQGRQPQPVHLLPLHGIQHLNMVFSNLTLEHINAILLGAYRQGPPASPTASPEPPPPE
From the text: ESP24218 (SEQ ID NO:1), the peptide component of the peptide/phospholipid complex, is a 22 amino acid peptide having a helical structure and amphipathic properties designed based on the helical repeats of apoA-I. In the presence of lipids, this peptide approaches 100% of the activity of native apoA-I in in vitro LCAT activation. The peptide can be prepared by chemical synthesis using any technique known to those of skill in the art. The peptide can be prepared by the synthetic techniques described in U.S. Pat. No. 6,004,925, incorporated herein by reference in its entirety for all purposes. Typically, ESP24218 (SEQ ID NO:1) is produced by a stepwise chemical synthesis on a solid support. In preferable embodiments, all amino acids in the peptide are natural L-α-amino acids in configuration. Generally, the amino and carboxyl termini of the peptide are free. The amino acid sequence of ESP24218 (SEQ ID NO:1) is shown in FIG. 1, which is as follows: H-[…]OH. The phospholipid can be obtained from any source known to those of skill in the art. […]

[1] = tested on: apo E expression in HepG2 cells; settings: cited from earlier work

Substance | activity in in vitro LCAT activation relative to native apoA-I (LCAT) | increase of expression of apo E [1]
H-Pro-Val-Leu-Asp-Leu-Phe-Arg-Glu-Leu-Leu-Asn-Glu-Leu-Leu-Glu-Ala-Leu-Lys-Gln-Lys-Leu-Lys-OH [ESP24218] | ~100% | 
Thyroid hormone |  | three
